Several values for one entry are separate records, joined by “and”; a condition that tells them apart may be missing. Identical values can stand only once. Like-named read-outs stand apart in the source and are kept apart here. Square brackets hold non-standard residues; d marks the D form. Ends that are not written are not given here. LTF = trifluoroleucine
Legend:
TEM of protein fibers = assay type: physicochemical; details: for average protein fiber diameter (TEM): fibers, 50 mM NaH2PO4 pH 4.0
Protocol: (§1) Transmission Electron Microscopy. Transmission electron microscopy (TEM) images were taken with a FEI Talos L120C transmission electron microscope. Protein fiber samples were diluted to 50 μM and 3 μL was spotted on Formvar/carbon-coated copper grids followed by 5 μL wash with water, and 3 μL staining with 1% v/v uranyl acetate solution each with incubation times of 1 min at RT. Fibrils were sized in ImageJ software (Version 1.52q).
as §1, with “Samples” for “Protein fiber samples”, “by a” for “by”, “min. Between steps, filter paper was used to wick the grids. Following imaging, fibrils” for “min at RT. Fibrils”

[1] = Fluorescence recovery after photobleaching (FRAP); details: one-phase association fit
Protocol: Protein fibrils are capable of blue autofluorescence as a result of protein self-assembly. Fluorescent recovery after photobleaching (FRAP) is measured by photobleaching using a 405 nm laser and measuring the spot intensity over time. This behavior was previously confirmed in the Q protein in a recent characterization. Using the correlation between autofluorescence and fibrilization, the relative autofluorescence of the coiled-coil protein hydrogels was measured. […] To assess the relative laser response, hydrogels were subjected to FRAP imaging using two 100% intensity bleaches at 405 nm excitation followed by imaging at 2 second frame intervals (FIG. 53c).
Confocal Imaging and Fluorescence Recovery After Photobleaching (FRAP). FRAP experiments were performed with a Stellaris 8 Falcon laser scanning confocal microscope on an inverted DMi8 CS stand equipped with 63X NA 1.4 lens. Images were taken with a laser at 405 nm excitation. A pre-bleach image was taken followed by two bleach images using 100% laser intensity for 1.5 s. Following, 41 images were taken post-bleach at 2 s intervals. To measure recovery, FIJI (version 2.3.0) was used to automate background and recovery imaging following photobleaching. Independent background intensities were fit to a one-phase decay equation in GraphPad Prism. Background loss, as a result of photobleaching, from fit values were added to spot intensity values before being fit to a one-phase association equation in GraphPad Prism.

[2] = Tube inversion concentration-temperature phase diagram; assay type: physicochemical; details: for solubility limit: 50 mM Tris, 500 mM NaCl, pH 8.0; for UCST: at solubility limit, extent of gelation η 0.5
Protocol: Tube Inversion Test. Immediately after concentration to 2 mM, the protein was incubated at 4° C. over the course of two weeks after aliquoting 150 μL into a 2 mL Eppendorf tube. The samples were visually assessed for gelation by inverting the tubes at 12-hour time intervals thereafter, with gelled samples not flowing upon inversion.
Gelation. To study the relative gelation of Q2 as compared to the previously reported coiled-coil hydrogel, Q, protein was successfully expressed (FIG. 24), purified (FIG. 25), and concentrated to 2 mM (1% w/v) in Tris buffer (50 mM Tris, 500 mM NaCl) at pH 8.0. Purity of the protein was measured to be >99% by SDS-PAGE (FIG. 26) and concentration was measured by BCA assay. Immediately following concentration, the gelation process of Q2 was studied using the microrheology assay described previously following incubation at 4° C. Separately, 150 μL samples were aliquoted for tube inversion tests performed after 2 weeks of incubation for visual assessment of gelation over time at 4° C. (FIG. 19a-d) and at concentrations from 1 mM to 3.5 mM with temperatures 5° C. to 25° C. using 0.5 mM and 5° C. step sizes, respectively, to create a matrix-based phase diagram (FIG. 19e). Temperature and concentration ranges were selected based on preliminary tube-inversion testing at high and low ends of the ranges.
Thermoresponsiveness and material strength. UCST behavior of protein hydrogels was assessed by testing […] samples via tube inversion in 2 mL microtubes after incubation for two weeks at various temperatures and concentrations. Temperature conditions were modulated in the range of 5-40° C. The concentration range was modified depending on if precipitation was visually noticeable in the microtube at an earlier concentration, indicating a solubility limit to our phase diagram, as has been done previously. […] As done with Q2, the UCST of the hydrogels was determined using a bivariate linear relationship for the extent of gelation where tubes that passed gelation by tube inversion were assigned a value of 1 (shown in black in FIG. 52a and FIG. 64a-d) and tubes that failed gelation by tube inversion (shown in red in FIG. 52a and FIG. 64a-d) were assigned a value of 0. The heatmap in FIG. 52a and FIG. 64a-d was used to denote the range of extent of gelation where the equation was employed to solve for the UCST using the solubility limit and solving for an extent of gelation, η, value of 0.5. The UCSTs (FIG. 52b) for the hydrogels studied here were 13.0° C., 35.9° C., 33.6° C., 17.5° C., and 22.9° C. for Q3-7, respectively, as compared to 17.0° C. for Q and 22.0° C. for Q2 found previously. Bivariate regression allowed for solving the coefficients for the dependence of temperature and concentration on gelation.
Tube Inversion. Binary sol-gel behavior was assessed using tube inversion. Immediately after concentration to 2 mM, 150 μL of Q hydrogel variants were incubated in 2 mL microtubes at 4° C. for two weeks. Gelation was visually observed by inverting the microtube and inspecting the sample for flow from the top of tube.

[3] = TEM of hydrogel nanofibers; assay type: physicochemical; details: gel after incubation at 4 °C
Protocol: as §1, with “The supramolecular assembly of Q2 and Q were monitored over the course of 60 and 144 hours, respectively (in correspondence with tube inversion and microrheology). TEM images were taken of the gel at times consistent with when microrheological measurements for Q2 for consistent fibril sizing. Samples” for “Protein fiber samples”, “min. Following imaging, fibrils” for “min at RT. Fibrils”
as §1, with “Samples” for “Protein fiber samples”, “[…]” for “5 μL”, “min. Between steps, filter paper was used to gently wick the grids dry. Following imaging, minimum diameter nanofibers within the physically crosslinked hydrogel” for “min at RT. Fibrils”

[4] = 10 Hz, Q as reported previously; cited from earlier work
[5] = Q as previously described; cited from earlier work

Substance | fiber assembly size by TEM (TEM of protein fibers; 2 mM, 50 mM Tris, 500 mM NaCl, pH 8.0, 4 °C, n=20) | diameter of large fiber aggregates (TEM of protein fibers; as E88) | median fiber diameter (TEM of protein fibers; as E88) | striation (protofibril) size by TEM (TEM of protein fibers; n=20) | Halftime [1] | K [1] | Tau [1] | solubility limit [2] | UCST [2] | hydrogel fibril diameter (TEM) [3] | average protein fiber diameter (TEM) (TEM of protein fibers) | storage modulus G′ [4] | UCST [5]
Q2LTF: protein-engineered fluorinated coiled-coil fiber, Q2 with trifluoroleucine, SEQ ID NO: 20 (MRGSHHHHHHGSIEGRVKE[LTF][LTF]F[LTF]KKTAEQM[LTF]EE[LTF]KETNKA[LTF]HDVRH[LTF][LTF]ENQSK[LTF]; ends and bridges not checked) [Protein Q2LTF] | 215.8±38.6 nm | ≤ 840 nm | 181.7 nm | 3.6±0.8 nm | – | – | – | – | – | – | – | – | –
Q2: coiled-coil protein redesigned from Q for reduced lateral assembly, SEQ ID NO: 11 (MRGSHHHHHHGSIEGRVKELLFLKKTAEQMLEELKETNKALHDVRHLLENQSKL) [Protein Q2] | – | – | – | – | 11.1 s | 0.1 s⁻¹ | 16.0 s | 3.5 mM | 22.0 °C | 28.9±8.6 nm | 91±37 nm | – | –
Q: rationally designed pentameric coiled-coil derived from C, SEQ ID NO: 23 (MRGSHHHHHHGSIEGRVKEITFLKNTAPQMLRELQETNAALQDVRELLRQQSKL) [reference compound] | – | – | – | – | 9.9 s | 0.1 s⁻¹ | 14.3 s | 3.5 mM | 17.0 °C | 40.5±25.2 nm | 208±82 nm | 50.4 Pa and 50 Pa | ~16 °C and 16.2 °C
Q3: Q variant with V44I pore mutation, SEQ ID NO: 12 (MRGSHHHHHHGSIEGRVKEILFLKNTAYQMLLELKETNEALYDIRHLLQQQSKL) [Protein Q3] | – | – | – | – | 34.8 s | 0.0 s⁻¹ | 50.1 s | – | 13.0 °C | 32.8±9.8 nm | 130±27 nm | – | –
Q5: Q hydrogel variant from Rosetta Monte Carlo search, SEQ ID NO: 14 (MRGSHHHHHHGSIEGRVKEITFIKKTIEQIAEEMKEINKAIHDIRHALENISKK) [Protein Q5] | – | – | – | – | 12.3 s | 0.1 s⁻¹ | 17.7 s | 3.5 mM | 33.6 °C | 22.2±8.4 nm | – | – | –

Source: patent US20240115742A1, “FLUORINATED FIBERS FOR MULTIMODAL 1H AND 19F MRI, ULTRASOUND, FLUORESCENCE DETECTION AND CONFORMATIONAL AND TEMPERATURE DETECTION BY 19F MRS” (New York University, priority 2022, published 2024)
